The assay concerns the target mTOR (mammalian target of rapamycin) (UniProt Q9JLN9 1-2549). The experiment in a line: co-immunoprecipitation of GAC proteins from Dbl-transformed cell lysates, Western blot with mTOR antibody. From the text:
To test this, Dbl-transformed cells were transiently transfected with wild-type GAC, GACΔC and GAC (S103A), and then these proteins were isolated from cell lysates by immunoprecipitation.

B1: GAC (S103A), phospho-defective mutant of mouse glutaminase C (enzyme)
chain: HPWWGGGGRAKGPGAGGLSSSPSEILQELGKGGTPPQQQQQQQQQPGAAPPAAPGPKDSPGETDAFGNSEGKEMVAAGDNKIKQGLLPSLEDLLFYTIAEGQEKIPVHKFITALKSTGLRTSDPRLKECMDMLRLTLQTTSDGVMLDKDLFKKCVQSNIVLLTQAFRRKFVIPDFMSFTSHIDELYESAKKQSGGKVADYIPQLAKFSPDLWGVSVCTVDGQRHSIGDTKVPFCLQSCVKPLKYAIAVNDLGTEYVHRYVGKEPSGLRFNKLFLNEDDKPHNPMVNAGAIVVTSLIKQGVNNAEKFDYVMQFLNKMAGNEYVGFSNATFQSERESGDRNFAIGYYLKEKKCFPEGTDMVGILDFYFQLCSIEVTCESASVMAATLANGGFCPITGERVLSPEAVRNTLSLMHSCGMYDFSGQFAFHVGLPAKSGVAGGILLVVPNVMGMMCWSPPLDKMGNSVKGIHFCHDLVSLCNFHNYDNLRHFAKKLDPRREGGDQRHSFGPLDYESLQQELALKDTVWKKVSPESSDDTSTTVVYRMESLGERS
notes: Transiently expressed in Dbl-transformed NIH 3T3 cells and isolated by immunoprecipitation; not shown: V5 tag
Consider B1, for which the binding result is “no binding”.

Source of the values: US20130252983A1 (CORNELL UNIVERSITY, published 2013).
